Measurements reported in patent US20060052582A1 (published 2006).

T1: HA Nercc (full-length Nercc1 with HA epitope tag) (human, UniProt Q8TD19 1-979)
T1 construct: also called HA Nercc FL
T1 sequence: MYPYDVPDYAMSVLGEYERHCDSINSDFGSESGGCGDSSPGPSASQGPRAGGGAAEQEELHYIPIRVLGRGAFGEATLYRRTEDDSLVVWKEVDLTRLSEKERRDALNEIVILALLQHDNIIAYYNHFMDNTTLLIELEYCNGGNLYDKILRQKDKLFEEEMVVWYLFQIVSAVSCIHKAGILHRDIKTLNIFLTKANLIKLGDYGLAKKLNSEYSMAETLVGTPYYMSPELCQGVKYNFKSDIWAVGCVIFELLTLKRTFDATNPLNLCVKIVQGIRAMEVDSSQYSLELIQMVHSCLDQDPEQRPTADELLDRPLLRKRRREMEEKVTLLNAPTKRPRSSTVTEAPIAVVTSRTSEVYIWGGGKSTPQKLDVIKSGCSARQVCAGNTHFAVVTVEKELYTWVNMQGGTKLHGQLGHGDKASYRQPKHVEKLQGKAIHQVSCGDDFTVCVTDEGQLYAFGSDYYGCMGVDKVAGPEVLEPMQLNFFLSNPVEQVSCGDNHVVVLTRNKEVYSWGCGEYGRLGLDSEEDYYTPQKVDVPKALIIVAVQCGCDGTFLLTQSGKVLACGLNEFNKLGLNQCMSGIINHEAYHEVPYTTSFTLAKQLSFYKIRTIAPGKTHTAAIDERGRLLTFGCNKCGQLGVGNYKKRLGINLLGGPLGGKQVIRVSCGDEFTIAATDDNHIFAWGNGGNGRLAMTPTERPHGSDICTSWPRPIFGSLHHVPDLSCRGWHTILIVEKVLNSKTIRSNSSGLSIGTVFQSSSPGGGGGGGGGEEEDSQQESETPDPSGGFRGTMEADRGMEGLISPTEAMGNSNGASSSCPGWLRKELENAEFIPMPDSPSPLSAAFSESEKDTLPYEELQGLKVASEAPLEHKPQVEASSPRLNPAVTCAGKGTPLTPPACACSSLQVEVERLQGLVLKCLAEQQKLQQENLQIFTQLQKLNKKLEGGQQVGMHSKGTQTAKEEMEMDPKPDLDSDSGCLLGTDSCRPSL

B1: FLAG Nercc (full-length wild type Nercc1 kinase with FLAG epitope tag) (enzyme)
chain: MDYKDDDDKMSVLGEYERHCDSINSDFGSESGGCGDSSPGPSASQGPRAGGGAAEQEELHYIPIRVLGRGAFGEATLYRRTEDDSLVVWKEVDLTRLSEKERRDALNEIVILALLQHDNIIAYYNHFMDNTTLLIELEYCNGGNLYDKILRQKDKLFEEEMVVWYLFQIVSAVSCIHKAGILHRDIKTLNIFLTKANLIKLGDYGLAKKLNSEYSMAETLVGTPYYMSPELCQGVKYNFKSDIWAVGCVIFELLTLKRTFDATNPLNLCVKIVQGIRAMEVDSSQYSLELIQMVHSCLDQDPEQRPTADELLDRPLLRKRRREMEEKVTLLNAPTKRPRSSTVTEAPIAVVTSRTSEVYIWGGGKSTPQKLDVIKSGCSARQVCAGNTHFAVVTVEKELYTWVNMQGGTKLHGQLGHGDKASYRQPKHVEKLQGKAIHQVSCGDDFTVCVTDEGQLYAFGSDYYGCMGVDKVAGPEVLEPMQLNFFLSNPVEQVSCGDNHVVVLTRNKEVYSWGCGEYGRLGLDSEEDYYTPQKVDVPKALIIVAVQCGCDGTFLLTQSGKVLACGLNEFNKLGLNQCMSGIINHEAYHEVPYTTSFTLAKQLSFYKIRTIAPGKTHTAAIDERGRLLTFGCNKCGQLGVGNYKKRLGINLLGGPLGGKQVIRVSCGDEFTIAATDDNHIFAWGNGGNGRLAMTPTERPHGSDICTSWPRPIFGSLHHVPDLSCRGWHTILIVEKVLNSKTIRSNSSGLSIGTVFQSSSPGGGGGGGGGEEEDSQQESETPDPSGGFRGTMEADRGMEGLISPTEAMGNSNGASSSCPGWLRKELENAEFIPMPDSPSPLSAAFSESEKDTLPYEELQGLKVASEAPLEHKPQVEASSPRLNPAVTCAGKGTPLTPPACACSSLQVEVERLQGLVLKCLAEQQKLQQENLQIFTQLQKLNKKLEGGQQVGMHSKGTQTAKEEMEMDPKPDLDSDSGCLLGTDSCRPSL
notes: Expressed in HEK293 cells; also called FLAG Nercc1; FLAG Nercc full length (FL)
B2: FLAG Nercc (1-891) (enzyme)
chain: MDYKDDDDKMSVLGEYERHCDSINSDFGSESGGCGDSSPGPSASQGPRAGGGAAEQEELHYIPIRVLGRGAFGEATLYRRTEDDSLVVWKEVDLTRLSEKERRDALNEIVILALLQHDNIIAYYNHFMDNTTLLIELEYCNGGNLYDKILRQKDKLFEEEMVVWYLFQIVSAVSCIHKAGILHRDIKTLNIFLTKANLIKLGDYGLAKKLNSEYSMAETLVGTPYYMSPELCQGVKYNFKSDIWAVGCVIFELLTLKRTFDATNPLNLCVKIVQGIRAMEVDSSQYSLELIQMVHSCLDQDPEQRPTADELLDRPLLRKRRREMEEKVTLLNAPTKRPRSSTVTEAPIAVVTSRTSEVYIWGGGKSTPQKLDVIKSGCSARQVCAGNTHFAVVTVEKELYTWVNMQGGTKLHGQLGHGDKASYRQPKHVEKLQGKAIHQVSCGDDFTVCVTDEGQLYAFGSDYYGCMGVDKVAGPEVLEPMQLNFFLSNPVEQVSCGDNHVVVLTRNKEVYSWGCGEYGRLGLDSEEDYYTPQKVDVPKALIIVAVQCGCDGTFLLTQSGKVLACGLNEFNKLGLNQCMSGIINHEAYHEVPYTTSFTLAKQLSFYKIRTIAPGKTHTAAIDERGRLLTFGCNKCGQLGVGNYKKRLGINLLGGPLGGKQVIRVSCGDEFTIAATDDNHIFAWGNGGNGRLAMTPTERPHGSDICTSWPRPIFGSLHHVPDLSCRGWHTILIVEKVLNSKTIRSNSSGLSIGTVFQSSSPGGGGGGGGGEEEDSQQESETPDPSGGFRGTMEADRGMEGLISPTEAMGNSNGASSSCPGWLRKELENAEFIPMPDSPSPLSAAFSESEKDTLPYEELQGLKVASEAPLEHKPQVEASSPRLNPAVTCAGKGTPLTPPACA
B3: Nercc (338-739) fused to the Nercc NLS (other)
chain: PIAVVTSRTSEVYIWGGGKSTPQKLDVIKSGCSARQVCAGNTHFAVVTVEKELYTWVNMQGGTKLHGQLGHGDKASYRQPKHVEKLQGKAIHQVSCGDDFTVCVTDEGQLYAFGSDYYGCMGVDKVAGPEVLEPMQLNFFLSNPVEQVSCGDNHVVVLTRNKEVYSWGCGEYGRLGLDSEEDYYTPQKVDVPKALIIVAVQCGCDGTFLLTQSGKVLACGLNEFNKLGLNQCMSGIINHEAYHEVPYTTSFTLAKQLSFYKIRTIAPGKTHTAAIDERGRLLTFGCNKCGQLGVGNYKKRLGINLLGGPLGGKQVIRVSCGDEFTIAATDDNHIFAWGNGGNGRLAMTPTERPHGSDICTSWPRPIFGSLHHVPDLSCRGWHTILIVEKVLNSKTIRSNSSG
notes: also called Nercc RCC1 domain directed to the nucleus; not shown: Nercc NLS
B4: FLAG Nercc (338-739) (other)
chain: MDYKDDDDKPIAVVTSRTSEVYIWGGGKSTPQKLDVIKSGCSARQVCAGNTHFAVVTVEKELYTWVNMQGGTKLHGQLGHGDKASYRQPKHVEKLQGKAIHQVSCGDDFTVCVTDEGQLYAFGSDYYGCMGVDKVAGPEVLEPMQLNFFLSNPVEQVSCGDNHVVVLTRNKEVYSWGCGEYGRLGLDSEEDYYTPQKVDVPKALIIVAVQCGCDGTFLLTQSGKVLACGLNEFNKLGLNQCMSGIINHEAYHEVPYTTSFTLAKQLSFYKIRTIAPGKTHTAAIDERGRLLTFGCNKCGQLGVGNYKKRLGINLLGGPLGGKQVIRVSCGDEFTIAATDDNHIFAWGNGGNGRLAMTPTERPHGSDICTSWPRPIFGSLHHVPDLSCRGWHTILIVEKVLNSKTIRSNSSG
notes: also called Nercc RCC1 domain; Nercc RCC1-like domain
B5: NLS Nercc FL (nuclear form of full length Nercc with an NLS peptide at the N-terminus) (enzyme)
chain: MSVLGEYERHCDSINSDFGSESGGCGDSSPGPSASQGPRAGGGAAEQEELHYIPIRVLGRGAFGEATLYRRTEDDSLVVWKEVDLTRLSEKERRDALNEIVILALLQHDNIIAYYNHFMDNTTLLIELEYCNGGNLYDKILRQKDKLFEEEMVVWYLFQIVSAVSCIHKAGILHRDIKTLNIFLTKANLIKLGDYGLAKKLNSEYSMAETLVGTPYYMSPELCQGVKYNFKSDIWAVGCVIFELLTLKRTFDATNPLNLCVKIVQGIRAMEVDSSQYSLELIQMVHSCLDQDPEQRPTADELLDRPLLRKRRREMEEKVTLLNAPTKRPRSSTVTEAPIAVVTSRTSEVYIWGGGKSTPQKLDVIKSGCSARQVCAGNTHFAVVTVEKELYTWVNMQGGTKLHGQLGHGDKASYRQPKHVEKLQGKAIHQVSCGDDFTVCVTDEGQLYAFGSDYYGCMGVDKVAGPEVLEPMQLNFFLSNPVEQVSCGDNHVVVLTRNKEVYSWGCGEYGRLGLDSEEDYYTPQKVDVPKALIIVAVQCGCDGTFLLTQSGKVLACGLNEFNKLGLNQCMSGIINHEAYHEVPYTTSFTLAKQLSFYKIRTIAPGKTHTAAIDERGRLLTFGCNKCGQLGVGNYKKRLGINLLGGPLGGKQVIRVSCGDEFTIAATDDNHIFAWGNGGNGRLAMTPTERPHGSDICTSWPRPIFGSLHHVPDLSCRGWHTILIVEKVLNSKTIRSNSSGLSIGTVFQSSSPGGGGGGGGGEEEDSQQESETPDPSGGFRGTMEADRGMEGLISPTEAMGNSNGASSSCPGWLRKELENAEFIPMPDSPSPLSAAFSESEKDTLPYEELQGLKVASEAPLEHKPQVEASSPRLNPAVTCAGKGTPLTPPACACSSLQVEVERLQGLVLKCLAEQQKLQQENLQIFTQLQKLNKKLEGGQQVGMHSKGTQTAKEEMEMDPKPDLDSDSGCLLGTDSCRPSL
notes: Probably FLAG-tagged like the other constructs; not shown: NLS peptide (a copy of the Nercc NLS)

Tests used:
[1] = target: T1, HA Nercc (full-length Nercc1 with HA …); experiment: anti-HA immunoprecipitation from co-transfected HEK293 cells, anti-FLAG blot
Ran T24N = Ran T24N (UniProt P62826 1-216); experiment: co-expression and co-immunoprecipitation
From the text: (§1) To address more directly the relative binding in vivo of Nercc to Ran-GDP compared to Ran-GTP, the cytoplasmic wild type Nercc and a nuclear form of full length Nercc (NLS-Nercc) were each co-expressed with wild type Ran or Ran mutants that bind GDP (T24N) or GTP (G19V) exclusively; either Ran or Nercc was immunoprecipitated and probed for the association with the other polypeptide. The full-length wild type Nercc bound co-expressed wild type Ran and Ran T24N to a greater extent than RanG19V.

Ran G19V = Ran G19V (UniProt P62826 1-216); experiment: co-expression and co-immunoprecipitation
From the text: as §1

Binder | binding result [1] | binding result (Ran T24N) | binding result (Ran G19V)
B1 | binds |  | 
B2 | no binding |  | 
B3 |  | no binding | no binding
B4 |  | no binding | no binding
B5 |  |  | no binding
